Measurements taken from the supplement of paper PMC9170038.

Tested on: MS2 coat protein
Test: apparent KD of MS2 coat protein; designed switch direction (-1 OFF switch, 1 ON switch): -1; higher = weaker reporter binding
Procedure, shortened: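 Three titration conditions were used: no input, 200 uM small-molecule ligand, and an oligonucleotide input. In each, SNAP-549-labelled MS2 coat protein was raised from 0.7 or 1.5 nM, doubling, to 3 µM over designed RNA switches transcribed on Illumina chips by stalled E. coli RNA polymerase. Curve fits of normalised cluster fluorescence gave values whose per-design median over clusters is the apparent KD.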

[1] = Eterna round: R95, input ligand: FMN 200 uM
[2] = Eterna round: R95, input ligand: microRNA oligo, concentration not stated
[3] = Eterna round: R95, input ligand: none
[4] = input ligand: microRNA oligo, concentration not stated

Sequence	apparent KD of MS2 coat protein [2]	apparent KD of MS2 coat protein (input ligand: FMN 200 uM)	apparent KD of MS2 coat protein (input ligand: none)	further results
GUAGAGUAAGGAUAUUGUGAAUAGGAUAGAAUGGUUAGAAACGAGAAGGUACAUGAGGAUCACCCAUGUAAUGU [Excluse me!!!! 22 - Jieux - Exclusion 4] (puzzle: Exclusion 4)	22.1 nM			apparent KD of MS2 coat protein [1]: 24.1 nM; apparent KD of MS2 coat protein [3]: 24.4 nM
GUAGAGUCAGGAUAUACAAGAUCGAUAGAUCAAAGGUCCAUACAUGAGGAUCACCCAUGUAGAAGGGACUCUAC [Mat - Exclusion 2 - Eli Mod - D9] (Eterna round: R97, puzzle: Exclusion 2)		37.2 nM	17.9 nM	
GUAGAGUCAGGAUAUACGAAUAGAUCGAUAGAUCAAUCCAUACAUGAGGAUCACCCAUGUAGAAGGGACUCUAC [Mat - Exclusion 2 - Eli Mod - D15] (Eterna round: R97, puzzle: Exclusion 2)		26.2 nM	18.8 nM	
GUAGCUUCGGCUACUACAAGCUUUUUGCUCGUCUUAUUAACAUGAGGAUCACCCAUGUUAAUGAGACCUCAUGUAUU [Sensor v3 - turn-off variant 2 - 6] (puzzle: Sensor v3, turn-off variant 2)	17 nM			apparent KD of MS2 coat protein [1]: 13.4 nM; apparent KD of MS2 coat protein [3]: 10.9 nM
GUAGUGUGAGGAUAUGGUAAAGAUAAGAUGAUGAAAGAACUCCAGAAGGCACAUGAGGAUCACCCAUGUAGAUU [Mat - Exclusion 4 - Mod of JL - D26] (puzzle: Exclusion 4)	19.7 nM			apparent KD of MS2 coat protein [1]: 49.8 nM; apparent KD of MS2 coat protein [3]: 26 nM
GUAUAUAGUGUGAGGAUAUGCUGGUCCUUGGAUCAGCAGAAGGCACAUGAGGAUCACCCAUGUAGUUUAUUAUG [Mat - Exclusion 4 - JL Mod - D8] (puzzle: Brourd's mod of Exclusion 4)	20 nM			
GUAUGUCUAGGAUAUAUAUUGGAAUGUCCGUGUCCUAGCCAACAUGAGGAUCACCCAUGUAGAAGGAGAUGUGU [Eternabot (L1) Solution 97] (Eterna round: R97, puzzle: Exclusion 2)		43.5 nM	52.8 nM	
GUCACAUGGACAUAGGAUCACAUGAGGAUCACCCAUGUGACUAACAAGCUUUUUGCUCGUCUUAUGUCCAUGUGAAA [Stov1/15-A2] (Eterna round: R97, puzzle: Sensor, turn-off variant 1)		14.1 nM	13.2 nM	
GUCACAUGGACAUAGGAUCACAUGAGGAUCACCCAUGUGACUAACAAGCUUUUUGUUCGUCUUAUGUCUAUGUGAAG [Stov1/16-B3] (Eterna round: R97, puzzle: Sensor, turn-off variant 1)		13.1 nM	16.9 nM	
GUCAGACGAGGAUAUAGAUUUAGAUACAUGAGGAUCACCCAUGUAUACAUGUAUUUAGAUUUAGAAGGCGUCUGAC [E5/14-A4] (Eterna round: R97, puzzle: Exclusion 5)		492 nM	1360 nM	
GUCAGCUCGUGAGGAUAUACAUCACUGCUUCGGCAGUGUAUUAAGAUCACAUGAGGAUCACCCAUGUAGAAGGCACGAGCUGAU [ENG2/2-A2] (Eterna round: R96, puzzle: Exclusion NG 2)		1020 nM	39 nM	apparent KD of MS2 coat protein [4]: 27.6 nM
GUCAGCUCGUGAGGAUAUGAACAUGAGGAUCACCCAUGUAAGAUCAAGCUGCUUCGGCAGCAAGUUCAGAAGGCACGAGCUGAC [ENG2/10-A1] (Eterna round: R96, puzzle: Exclusion NG 2)		221 nM	134 nM	apparent KD of MS2 coat protein [4]: 85.8 nM
GUCAUCAAACAUGGGAUAAACAUGAGGAUCACCCAUGUUAACAAGUUUUUUGCUCGUCUUAUAAUAAGUUUGAUGAC [Antenna 11 - Jieux - Sensor, turn-off variant 1] (Eterna round: R97, puzzle: Sensor, turn-off variant 1)		12.4 nM	13.5 nM	
GUCAUCACACAUGGGAUCAACAUGAGGAUCACCCAUGUUGUCAAGUUUUUUGCUCGUCUUAUAAUACGUUUGAUGAG [Mod-Jxd] (Eterna round: R97, puzzle: Sensor, turn-off variant 1)		135 nM	154 nM	
GUCCAGUUAGGAUAUCAAUGCCACAACAUGAGGAUCACCCAUGUUUGGGUCCCUCACCAAUGAGAAGGAACGGGAC [Esteenedso] (puzzle: Exclusion 5)	32.1 nM			
GUCCUGGCUUUUCACAGGCACAUGAGGAUCACCCAUGUCGUGGGUAGAUCCCUCCCUGGGAAAUCUGCUCGUCUUAU [Cac Sensor turn off v1 sub12] (Eterna round: R97, puzzle: Sensor, turn-off variant 1)		78.9 nM	84.6 nM	
GUCGAGUGAGGAUAUGGUGAGUAGUGCCUGAGCGCUGCUCACCAGAAGGCACAUGAGGAUCACCCAUGUAUGUC [JL-ex4-2.04 denovo] (puzzle: Exclusion 4)	12.3 nM			
GUCGAUGUCAAAGGAUAUCAGCACGUUUAGUGCUGAGAAGGUUGAACAUGAGGAUCACCCAUGUAGAUCAUUAACGACUUAAUU [ENG1/10-A1] (Eterna round: R96, puzzle: Exclusion NG 1)		44.5 nM	20.7 nM	apparent KD of MS2 coat protein [4]: 15.7 nM

Sequence	apparent KD of MS2 coat protein [2]	apparent KD of MS2 coat protein (input ligand: FMN 200 uM)	apparent KD of MS2 coat protein (input ligand: none)	further results
GUCGCUAGAGGAUAUACAAUGGUAUAUGAUCCUAGUGACAUACAUGAGGAUCACCCAUGUAGAAGGCUAGUAUU [Exclusion 2 - 8] (puzzle: Exclusion 2)	23.7 nM			
GUCGGGCAAGGAUAUGUAGCACUCUACAUGAGGAUCACCCAUGUGAGCCUGCAUGGUGCGACAGAAGGUGCAAAAG [Enencear] (Eterna round: R97, puzzle: Exclusion 5)		330 nM	361 nM	
GUCGUGUAAGGAUAUGCAUCGAGGUAGCGAAUGUUGCAGGUGUAGAAGGUACAUGAGGAUCACCCAUGUAAUGU [Exclusion 4 - An extended Mod of Jieux] (puzzle: Exclusion 4)	20.2 nM			
GUCUAGCGAGGAUAUUGCAGACGAAACAUGAGGAUCACCCAUGUGGCCUUGUGCCGUGUGCAAGAAGGCGCGAGGC [Gelelaor] (Eterna round: R97, puzzle: Exclusion 5)		297 nM	268 nM	
GUCUUACAUGAGGAUCACCCAUGUGAGGAUAUGGAUUCGCUGGCCGUAGCCAGUGGAUCCAGAAGGCGCAUGAU [JL-ex1-4.04] (Eterna round: R97, puzzle: Exclusion 1)		50.9 nM	39.2 nM	
GUCUUACAUGAGGAUCACCCAUGUGAGGAUAUGGAUUCGCUGGCCGUAGCCAGUGGAUCCAGAAGGCGCGUGAU [JL-ex1-4.20] (Eterna round: R97, puzzle: Exclusion 1)		67 nM	62.5 nM	
GUGAAGUGAGGAUAUACGAGAGAGGCUGAACCGGACGAGAAGUAGAAGGCACAUGAGGAUCACCCAUGUAAGGA [JR_Exclu4_Sub022] (puzzle: Exclusion 4)	34.4 nM			
GUGAGAUAGUUAGUGGACGACAUGAGGAUCACCCAUGUGAGGGAAAUGUUAAGGAGAAAGCUUUUUGCUCGUCUUUA [JR_SV3TOV1_Sub035] (puzzle: Sensor v3, turn-off variant 1)	70.4 nM			apparent KD of MS2 coat protein [1]: 98.9 nM; apparent KD of MS2 coat protein [3]: 180 nM
GUGAGCAGACGGAGAUCCAACAUGAGGAUCACCCAUGUCUCACUAGCUUUUUGCUCGUCUUAUCCUCCUCUGUUCAC [Elimod 23 - Jieux - Sensor, turn-off variant 1] (Eterna round: R97, puzzle: Sensor, turn-off variant 1)		16 nM	16.2 nM	
GUGAUCUAUCAUGGGAUAAACAUGAGGAUCACCCAUGUAAACAAGUUUUUUGCUCGUCUUAUAAUAAGAUAGAUCAC [Antenna 2 - Jieux - Sensor, turn-off variant 1] (Eterna round: R97, puzzle: Sensor, turn-off variant 1)		21.1 nM	20.9 nM	
GUGGAGUAAGGAUAUACAUGAGGAUCACCCAUGUGAGGGUAUGAGAAGGGAAUGAGAGGUAGAAGGUACGAGGG [JR_Exclu3_Sub070] (puzzle: Exclusion 3)	111 nM			
GUGGUGACAGGAUAUACAUGAGGAUCACCCAUGUGAGGAGGAGGAGAGAGGUGAAGGAGUAGAAGGGUCAGAGA [JR_Exclu3_Sub025] (puzzle: Exclusion 3)	91.5 nM			apparent KD of MS2 coat protein [1]: 102 nM; apparent KD of MS2 coat protein [3]: 106 nM
GUGGUUCCUGUCAGGAUAUACGCGGACCACCACCUGUAGAAGGGACAUGAGGAUCACCCAUGUUUUCCAAAGCG [Eternabot (L2) Solution 80] (Eterna round: R97, puzzle: Brourd's mod of Exclusion 4)		13.2 nM	13 nM	
GUGUAACUACACGGGCUCAACAUGAGGAUCACCCAUGUCAUACACGCAAGCUUUUUGCUUGUCUUAUCAGUCCGUGA [Rereerdiin] (puzzle: Sensor v3, turn-off variant 1)	13.4 nM			apparent KD of MS2 coat protein [1]: 13 nM; apparent KD of MS2 coat protein [3]: 11.1 nM
GUGUACAGAGGAUAUACUUAUGGAGUUACGAAAGUAACUUCACAUGAGGAUCACCCAUGUAGAAGGCUGUACAC [Dot plot directed v10] (puzzle: Exclusion 2)	25.9 nM			
GUGUACAGAGGAUAUACUUGAAUCUAGCGAAGCUAGGUUCGACAUGAGGAUCACCCAUGUAGAAGGCUGUACAC [Dot plot directed A v2] (puzzle: Exclusion 2)	12.4 nM			
GUGUACAGAGGAUAUGCACGAGGAGUUACGAAAGUAACUUCACAUGAGGAUCACCCAUGUAGAAGGCUGUACAC [Dot plot directed v5] (puzzle: Exclusion 2)	13.9 nM			
